# IntAct's records for PubMed 17187064
# B1: A-type potassium channel modulatory protein KCNIP1 (Homo sapiens), Q9NZI2 (parent)
# chain: MGAVMGTFSSLQTKQRRPSKDIAWWYYQYQRDKIEDELEMTMVCHRPEGLEQLEAQTNFTKRELQVLYRGFKNECPSGVVNEDTFKQIYAQFFPHGDASTYAHYLFNAFDTTQTGSVKFEDFVTALSILLRGTVHEKLRWTFNLYDINKDGYINKEEMMDIVKAIYDMMGKYTYPVLKEDTPRQHVDVFFQKMDKNKDGIVTLDEFLESCQEDDNIMRSLQLFQNVM
# partner: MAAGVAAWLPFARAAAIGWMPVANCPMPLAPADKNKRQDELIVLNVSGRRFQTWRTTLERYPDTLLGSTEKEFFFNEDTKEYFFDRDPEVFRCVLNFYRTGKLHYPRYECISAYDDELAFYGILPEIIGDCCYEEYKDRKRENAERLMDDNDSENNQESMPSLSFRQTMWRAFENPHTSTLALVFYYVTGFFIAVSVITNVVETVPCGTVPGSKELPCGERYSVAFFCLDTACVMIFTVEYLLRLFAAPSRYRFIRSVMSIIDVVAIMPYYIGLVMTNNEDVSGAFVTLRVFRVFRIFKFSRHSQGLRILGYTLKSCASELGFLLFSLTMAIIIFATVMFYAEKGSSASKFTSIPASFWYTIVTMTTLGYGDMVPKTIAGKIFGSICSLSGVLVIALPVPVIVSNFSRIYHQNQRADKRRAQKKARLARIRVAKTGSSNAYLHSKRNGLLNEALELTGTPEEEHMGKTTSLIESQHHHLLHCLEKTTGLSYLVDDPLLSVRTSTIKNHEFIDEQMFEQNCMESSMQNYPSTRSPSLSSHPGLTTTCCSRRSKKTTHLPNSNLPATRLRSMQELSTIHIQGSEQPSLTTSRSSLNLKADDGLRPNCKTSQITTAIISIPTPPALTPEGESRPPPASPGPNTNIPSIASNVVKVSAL
# B2: A-type voltage-gated potassium channel KCND3 (Homo sapiens), Q9UK17 (parent)
# chain: B1 partner
# partner: B1 chain
# Variants of: B1
# Details: with kcnd3_human KCND3, Q9UK17
row,effect of a mutation on the interaction,Variant
1,disrupting interaction,MGAVMGTFSSLQTKQRRPSKDIAWWYYQYQRDKIEDELEMTMVCHRPEGLEQLEAQTNFTKRELQVLYRGFKNECPSGVVNEDTFKQIYAQFFPHGDASTYAHYLFNAFDTTQTGSVKFEDFVTALSILLRGTEHEKLRWTFNLYDINKDGYINKEEMMDIVKAIYDMMGKYTYPVLKEDTPRQHVDVFFQKMDKNKDGIVTLDEFLESCQEDDNIMRSLQLFQNVM [V134E]

# Variants of: B2
# Details: with kcip1_human KCNIP1, Q9NZI2
row,effect of a mutation on the interaction,Variant
1,disrupting interaction,W8E;P10E;A15E
